Reference: paper PMC8410842, “Heimdallarchaea encodes profilin with eukaryotic-like actin regulation and polyproline binding” (Communications Biology, 2021)
Where two headings read alike, the source gives them in different places.

Experiments:
ΔN-heimProfilin = target: T1, ΔN-heimProfilin (Candidatus Heimdallarchaeota archaeon LC_3, UniProt A0A1Q9NL85); test: NMR 1H-15N TROSY-HSQC titration; format: binding; conditions: 25 mM Tris-HCl pH 7.5, 50 mM NaCl, 5% glycerol, 298 K; acyl chains not given
T1 construct: gene HeimC3_27980; residues 1-23 (N-terminal extension) deleted; E. coli Rosetta DE3; His6-SUMO tag cleaved with Ulp1; 15N labelled; PDB 6YRR is the full-length parent

[1] = target: Heimdallarchaeota LC3 profilin (heimProfilin) (Candidatus Heimdallarchaeota archaeon LC_3); test: ITC; profilin in the cell (approx. 0.1-0.5 mM), 20 injections of 1.0-14 mM polyproline (VASP); 50 mM Na3PO4 pH 7.5, 50 mM NaCl; 25 °C; triplicates
[2] = target: ΔN-heimProfilin (Candidatus Heimdallarchaeota archaeon LC_3); test: as above
[3] = target: both the full-length protein and ΔN-thorProfilin; test: NMR titration; 1H-15N TROSY-HSQC; fixed thorProfilin or ΔN-thorProfilin (200 μM), increasing polyproline … (0, 5, 7 mM in the legend); 25 mM Tris-HCl pH 6.8, 150 mM NaCl; KD from fits of chemical shifts of a few residues
[4] = target: both the full-length protein and ΔN-thorProfilin; test: as above; remark: listed apart in the source

For PIP2, the affinity (ΔN-heimProfilin) was ~ 0.5–1 ± 0.3 mM.

GAGGGPPPAPPLPAAQ [polyproline motif of VASP (…)] gave a Kd [1] of 3300 µM and a Kd [2] of 300 µM.

With PPPAPPLPAAQ [polyproline from VASP (…)] the Kd [3] was 250 to 500 µM and the Kd [4] was 200 to 500 µM.
